Broadly, the stoichiometry N is the number of molecules, sites or subunits per partner or assembly.

Data on 1 protein can be found in publication PMC5579359, “Sensing of viral and endogenous RNA by ZBP1/DAI induces necroptosis” (The EMBO Journal, 2017).

The data set deals with the molecule itself. As to the kind of experiment: non-reducing SDS-PAGE and Western blot. For orientation: A western blot detects proteins with antibodies after separation by electrophoresis.

B1: MLKL (natural protein, mouse (endogenous in NIH3T3), UniProt Q9D2Y4 1-472, looked up)
chain: MDKLGQIIKLGQLIYEQCEKMKYCRKQCQRLGNRVHGLLQPLQRLQAQGKKNLPDDITAALGRFDEVLKEANQQIEKFSKKSHIWKFVSVGNDKILFHEVNEKLRDVWEELLLLLQVYHWNTVSDVSQPASWQQEDRQDAEEDGNENMKVILMQLQISVEEINKTLKQCSLKPTQEIPQDLQIKEIPKEHLGPPWTKLKTSKMSTIYRGEYHRSPVTIKVFNNPQAESVGIVRFTFNDEIKTMKKFDSPNILRIFGICIDQTVKPPEFSIVMEYCELGTLRELLDREKDLTMSVRSLLVLRAARGLYRLHHSETLHRNISSSSFLVAGGYQVKLAGFELSKTQNSISRTAKSTKAERSSSTIYVSPERLKNPFCLYDIKAEIYSFGIVLWEIATGKIPFEGCDSKKIRELVAEDKKQEPVGQDCPELLREIINECRAHEPSQRPSVDGRSLSGRERILERLSAVEESTDKKV
notes: also called pseudokinase MLKL; source: endogenous, NIH3T3 cell and primary MEF lysates
For the protein B1, the “stoichiometry N” value was determined as 3.
